Mean tumor volume data for five molecules are collected here from patent US20250000991A1, “NECTIN-4 ANTIBODIES AND ANTIBODY-DRUG CONJUGATES” (Eli Lilly and Company, priority 2023, published 2025).

The subject of experiment [1] is UM-UC-3 Nectin4 clone F7 xenograft. The experiment can be described thus: Tumor xenograft, high nectin-4 expression. The note with it: UMUC3 Nectin-4 clone F7 xenograft, single dose 2 mg/kg, day 40. It counts as in vivo, mice (nu/nu). The method, then:
In order to test the efficacy of the nectin-4 ADCs of the present disclosure, which have effector null mutations in the Fc region, and to compare to the enfortumab antibody, which has wildtype Fc and in an ADC with the same payload background as the ones of this disclosure, two tumor xenograft models with either high or moderate nectin-4 expression were tested as described. Immune compromised female mice (nu/nu) between 5-8 weeks of age with weight 18-20 grams were implanted unilaterally on the right flank with UM-UC-3 Nectin4 clone F7 cells with high nectin-4 expression. […] The test articles were given at a single dose (2 mg/kg) formulated with 5% dextrose. Tumors were measured biweekly until Day 40.

The subject of another experiment is MDA-MB-468 xenograft. The experiment can be described thus: Tumor xenograft, moderate nectin-4 expression. The note with it: MDAMB468 xenograft, single dose 2 mg/kg, day 71. It counts as in vivo, NSG mice. The method, then:
In a separate study, female NSG mice between 5-6 weeks of age were injected subcutaneously with MDA-MB-468 cells with moderate Nectin-4 expression. When tumors reached approximately 150-250 mm^3; animals were matched by tumor volume into treatment or control groups and dosing initiated (Day 0, n=8 per group). The test articles were given at a single dose (2 mg/kg) formulated with 5% Dextrose. Tumors were measured biweekly until Day 71.
In both models, a 2 mg/kg single dose treatment of either the nectin-4 ADCs (exemplified herein with each of Abs1-8 conjugated as in Formula XI, and with a DAR of 8) or benchmark enfortumab ADC (enfortumab conjugated with Formula XI, and with a DAR of 8) was used. Tumor growth was measured at day 40 for UMUC3 Nectin-4 clone F7 and day 71 for MDAMB468 xenografts.

B1: Ab6 ADC: Ab6 conjugated as in Formula XI, and with a DAR of 8 (conjugate)
heavy: QVQLVQSGAEVKKPGASVKVSCKASGYTFTGYYMHWVRQAPGQGLEWMGIINPSGGSTTYAQKFQGRVTMTRDTSTSTVYMELSSLRSEDTAVYYCARGRLGTYFDYWGQGTLVTVSSASTKGPSVFPLAPSSKSTSGGTAALGCLVKDYFPEPVTVSWNSGALTSGVHTFPAVLQSSGLYSLSSVVTVPSSSLGTQTYICNVNHKPSNTKVDKRVEPKSCDKTHTCPPCPAPEAAGGPSVFLFPPKPKDTLMISRTPEVTCVVVSVSHEDPEVKFNWYVDGVEVHNAKTKPREEQYNSTYRVVSVLTVLHQDWLNGKEYKCKVSNKALPAPIEKTISKAKGQPREPQVYTLPPSREEMTKNQVSLTCLVKGFYPSDIAVEWESNGQPENNYKTTPPVLDSDGSFFLYSKLTVDKSRWQQGNVFSCSVMHEALHNHYTQKSLSLSPGK
light: SYVLTQPPSVSVAPGQTARITCGGNNIGSKSVHWYQQKPGQAPVLVVYDDSDRPSGIPERFSGSNSGNTATLTISRVEAGDEADYYCQVWDRSSDQVVFGGGTKLTVLGQPKAAPSVTLFPPSSEELQANKATLVCLISDFYPGAVTVAWKADSSPVKAGVETTTPSKQSNNKYAASSYLSLTPEQWKSHRSYSCQVTHEGSTVEKTVAPTECS
With B1, the Mean tumor volume in experiment [1] came to 866.94 mm^3; in the experiment with MDA-MB-468 xenograft, 304.9 mm^3.

B2: Ab3 ADC: Ab3 conjugated as in Formula XI, and with a DAR of 8 (conjugate)
heavy: EVQLVESGGGLVKPGGSLRLSCAASGFNLNHYNMNWVRQAPGKGLEWVSSVSSGGGFRYYADSVRGRFTISRDNAKNSLYLQMNSLRAEDTAVYYCARGAVFHDAFDIWGQGTLVTVSSASTKGPSVFPLAPSSKSTSGGTAALGCLVKDYFPEPVTVSWNSGALTSGVHTFPAVLQSSGLYSLSSVVTVPSSSLGTQTYICNVNHKPSNTKVDKRVEPKSCDKTHTCPPCPAPEAAGGPSVFLFPPKPKDTLMISRTPEVTCVVVSVSHEDPEVKFNWYVDGVEVHNAKTKPREEQYNSTYRVVSVLTVLHQDWLNGKEYKCKVSNKALPAPIEKTISKAKGQPREPQVYTLPPSREEMTKNQVSLTCLVKGFYPSDIAVEWESNGQPENNYKTTPPVLDSDGSFFLYSKLTVDKSRWQQGNVFSCSVMHEALHNHYTQKSLSLSPGK
light: DIQLTQSPSFLSASVGDRVTITCRASQDISSYLAWYQQKPGKAPKLLIYVASTLQSGVPSRFSGSGSGTEFTLTISSLQPEDFATYYCQQINSYPFTFGQGTKVEIKRTVAAPSVFIFPPSDEQLKSGTASVVCLLNNFYPREAKVQWKVDNALQSGNSQESVTEQDSKDSTYSLSSTLTLSKADYEKHKVYACEVTHQGLSSPVTKSFNRGEC
On to B2, for which the Mean tumor volume came out at 993.45 mm^3 in experiment [1] and 366.45 mm^3 in the experiment on MDA-MB-468 xenograft.

B3: Ab4 ADC: Ab4 conjugated as in Formula XI, and with a DAR of 8 (conjugate)
heavy: QVQLQESGPGLVKPSETLSLTCTVSGGSISGYYWSWIRQPPGKGLEWIGYIYYSGSTNYNPSLKSRVTISVDTSKNQFSLKLSSVTAADTAVYYCARLGIFFDAFDIWGQGTLVTVSSASTKGPSVFPLAPSSKSTSGGTAALGCLVKDYFPEPVTVSWNSGALTSGVHTFPAVLQSSGLYSLSSVVTVPSSSLGTQTYICNVNHKPSNTKVDKRVEPKSCDKTHTCPPCPAPEAAGGPSVFLFPPKPKDTLMISRTPEVTCVVVSVSHEDPEVKFNWYVDGVEVHNAKTKPREEQYNSTYRVVSVLTVLHQDWLNGKEYKCKVSNKALPAPIEKTISKAKGQPREPQVYTLPPSREEMTKNQVSLTCLVKGFYPSDIAVEWESNGQPENNYKTTPPVLDSDGSFFLYSKLTVDKSRWQQGNVFSCSVMHEALHNHYTQKSLSLSPGK
light: DIQLTQSPSFLSASVGDRVTITCRASQGISSYLAWYQQKPGKAPKLLIYAASTLQSGVPSRFSGSGSGTEFTLTISSLQPEDFATYYCQQFNSYPWTFGQGTKVEIKRTVAAPSVFIFPPSDEQLKSGTASVVCLLNNFYPREAKVQWKVDNALQSGNSQESVTEQDSKDSTYSLSSTLTLSKADYEKHKVYACEVTHQGLSSPVTKSFNRGEC
With B3, the Mean tumor volume in experiment [1] is on record as 928.09 mm^3; with MDA-MB-468 xenograft it was 343.65 mm^3.

B4: Ab5 ADC: Ab5 conjugated as in Formula XI, and with a DAR of 8 (conjugate)
heavy: QVQLVQSGAEVKKPGASVKVSCKASGYTFTSYYVHWVRQAPGQGLEWMGIINPSIISTSYAQKFQARVTMTRDTSTSTVYMELSSLRSEDTAVYYCARGLNFDAFDIWGQGTLVTVSSASTKGPSVFPLAPSSKSTSGGTAALGCLVKDYFPEPVTVSWNSGALTSGVHTFPAVLQSSGLYSLSSVVTVPSSSLGTQTYICNVNHKPSNTKVDKRVEPKSCDKTHTCPPCPAPEAAGGPSVFLFPPKPKDTLMISRTPEVTCVVVSVSHEDPEVKFNWYVDGVEVHNAKTKPREEQYNSTYRVVSVLTVLHQDWLNGKEYKCKVSNKALPAPIEKTISKAKGQPREPQVYTLPPSREEMTKNQVSLTCLVKGFYPSDIAVEWESNGQPENNYKTTPPVLDSDGSFFLYSKLTVDKSRWQQGNVFSCSVMHEALHNHYTQKSLSLSPGK
light: DIQLTQSPSFLSASVGDRVTITCRASQGISSYLAWYQQKPGKAPKLLIYAASTLQSGVPSRFSGSGSGTEFTLTISSLQPEDFATYYCQQLNNYPFTFGQGTKVEIKRTVAAPSVFIFPPSDEQLKSGTASVVCLLNNFYPREAKVQWKVDNALQSGNSQESVTEQDSKDSTYSLSSTLTLSKADYEKHKVYACEVTHQGLSSPVTKSFNRGEC
B4: the figures for the Mean tumor volume (in experiment [1]; in the experiment with MDA-MB-468 xenograft) were 632.99 mm^3 and 220.38 mm^3, respectively.

B5: Ab1a ADC: Ab1a conjugated as in Formula XI, and with a DAR of 8 (conjugate)
heavy: QVQLVQSGAQVKKPGASVKVSCKASGYTFTGYYIHWVRQAPGQGLEWMGWINPNSGGTNYAQKFQGRVTMTRDTSISTAYMELSRLRSDDTAVYFCAREDWDFDYWGQGTLVTVSSASTKGPSVFPLAPSSKSTSGGTAALGCLVKDYFPEPVTVSWNSGALTSGVHTFPAVLQSSGLYSLSSVVTVPSSSLGTQTYICNVNHKPSNTKVDKRVEPKSCDKTHTCPPCPAPEAAGGPSVFLFPPKPKDTLMISRTPEVTCVVVSVSHEDPEVKFNWYVDGVEVHNAKTKPREEQYNSTYRVVSVLTVLHQDWLNGKEYKCKVSNKALPAPIEKTISKAKGQPREPQVYTLPPSREEMTKNQVSLTCLVKGFYPSDIAVEWESNGQPENNYKTTPPVLDSDGSFFLYSKLTVDKSRWQQGNVFSCSVMHEALHNHYTQKSLSLSPGK
light: EIVLTQSPGTLSLSPGERATLSCRTSQSVSSSYLAWYQQKPGQAPRLLIYGASNRATDIPDRFSGSGSGTDFTLTINRLEPEDFAVYYCQQYGSSPITFGQGTRLEIKRTVAAPSVFIFPPSDEQLKSGTASVVCLLNNFYPREAKVQWKVDNALQSGNSQESVTEQDSKDSTYSLSSTLTLSKADYEKHKVYACEVTHQGLSSPVTKSFNRGEC
Regarding B5, the Mean tumor volume in experiment [1] is 234.79 mm^3; with MDA-MB-468 xenograft, 135.24 mm^3.
